The source of these data is patent US20040248206A1 (FIBROGEN, published 2004).

One test has as its target T1, PC5444.
T1 construct: Synthetic peptide of the exon 3 region with Ser where native CTGF has Cys
T1 peptide: PLSSMDVRLPSPDS
The experiment in a line: ELISA with synthetic peptide.

In the next test the target is T2, PC5445 (human).
T2 peptide: RLPSPDSPFPRRVKLPGK
The experiment in a line: ELISA with synthetic peptide. (ELISA stands for enzyme-linked immunosorbent assay.)

In the next test the target is T3, PEP5 (human).
T3 peptide: RLPSPDCPFPRRVKL
The experiment in a line: ELISA with synthetic peptide.

In the next test the target is T4, P40340 (human).
T4 peptide: RLPSPDCPFPRRV
The experiment in a line: ELISA with synthetic peptide.

For a further test, the target named is T5, P40341.
T5 construct: Same as P40340 with Ser in place of the Cys
T5 peptide: RLPSPDSPFPRRV
In words: ELISA with synthetic peptide.

For another test, the target named is T6, P40342 (human).
T6 peptide: LPSPDCPFPRRVKL
In words: ELISA with synthetic peptide.

The target in a further test is T7, 10MER.
T7 peptide: SPDSPFPRRV
In words: ELISA with synthetic peptide.

The next test deals with T8, 10MER2.
T8 peptide: SPDCPFPRRV
In words: ELISA with synthetic peptide.

A further test deals with T9, 9MER.
T9 peptide: PDSPFPRRV
In words: ELISA with synthetic peptide.

The target of another test is T10, 9MER2.
T10 peptide: CPFPRRVKL
In words: ELISA with synthetic peptide.

The target in another test is T11, 8MER.
T11 peptide: DSPFPRRV
In words: ELISA with synthetic peptide.

A further test has as its target T12, 8MER2.
T12 peptide: CFPRRVKL
The experiment in a line: ELISA with synthetic peptide.

A further test has as its target T13, 7MER.
T13 construct: The N-terminal C is probably the added, non-native cysteine (underlining lost in the text)
T13 peptide: CPRRVKL
In words: ELISA with synthetic peptide.

A further test has as its target T14, 6MER.
T14 construct: The N-terminal C is probably the added, non-native cysteine (underlining lost in the text)
T14 peptide: CRRVKL
In words: ELISA with synthetic peptide.

The target of a further test is T15, 5MER.
T15 construct: The N-terminal C is probably the added, non-native cysteine (underlining lost in the text)
T15 peptide: CRVKL
In words: ELISA with synthetic peptide.

In test [1] the target is T16, recombinant human connective tissue growth factor (human, UniProt P29279 27-349).
T16 construct: Radio-iodinated in the RIA; also called rhCTGF; CTGF
T16 sequence: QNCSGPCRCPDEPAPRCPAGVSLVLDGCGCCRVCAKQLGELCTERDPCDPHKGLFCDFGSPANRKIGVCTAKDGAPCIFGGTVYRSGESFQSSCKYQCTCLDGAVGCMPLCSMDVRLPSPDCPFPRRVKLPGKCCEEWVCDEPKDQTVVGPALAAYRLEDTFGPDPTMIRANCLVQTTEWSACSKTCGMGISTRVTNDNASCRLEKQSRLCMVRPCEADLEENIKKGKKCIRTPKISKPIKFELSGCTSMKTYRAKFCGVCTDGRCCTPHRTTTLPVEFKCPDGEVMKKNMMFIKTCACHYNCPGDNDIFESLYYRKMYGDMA
The experiment in a line: RIA, immobilized antibody, [125I]rhCTGF with unlabeled rhCTGF, Scatchard. As to the method:
The affinity of each antibody population identified by epitope mapping was measured using RIA, wherein whole rhCTGF was radio-iodinated and added to wells containing immobilized monoclonal antibody, as follows. Recombinant human CTGF was radiolabeled with ¹²⁵I using the chloramine-T method. (See, Greenwood et al. (1963) Biochem J 89:114-123.) Typically, at least 60% of the ¹²⁵I was incorporated and the specific activity of the labeled CTGF was at least 1×10⁵ cpm/ng, although labeled CTGF of lower specific activity can be used in the radioimmunoassay. Goat anti-human IgG, γFc-specific capture antibody (Jackson ImmunoResearch) in Ca²⁺- and Mg²⁺-free DPBS (Mediatech, Herrndon Va.) was added to the wells of a MAXISORP BREAKAPART microtiter plate (Nalge Nunc International, Rochester N.Y.) and allowed to bind overnight at 4° C. The wells were then blocked with 1% BSA in Ca²⁺- and Mg²⁺-free DPBS for at least 4 hours at 4° C. […] Wells were then washed four times with 0.1% Tween 20 in Ca²⁺- and Mg²⁺-free PBS (Mediatech), and the wells of the microtiter plate were separated and counted in a gamma counter.
Affinity was estimated graphically by the method of Scatchard (1948, Ann NY Acad Sci 51:660-72). The total concentration of labeled CTGF applied to the plate was calculated as […]

For test [2], the target named is T17, recombinant human connective tissue growth factor (UniProt P29279 27-349).
T17 chain: T16 sequence
In words: Scatchard competitive binding; mAb 5 ng/ml.

Test [3] concerns the target T18, rat CTGF (rat, UniProt Q9R1E9 25-347).
T18 construct: also called unlabeled rat CTGF; recombinant rat CTGF
T18 sequence (looked up): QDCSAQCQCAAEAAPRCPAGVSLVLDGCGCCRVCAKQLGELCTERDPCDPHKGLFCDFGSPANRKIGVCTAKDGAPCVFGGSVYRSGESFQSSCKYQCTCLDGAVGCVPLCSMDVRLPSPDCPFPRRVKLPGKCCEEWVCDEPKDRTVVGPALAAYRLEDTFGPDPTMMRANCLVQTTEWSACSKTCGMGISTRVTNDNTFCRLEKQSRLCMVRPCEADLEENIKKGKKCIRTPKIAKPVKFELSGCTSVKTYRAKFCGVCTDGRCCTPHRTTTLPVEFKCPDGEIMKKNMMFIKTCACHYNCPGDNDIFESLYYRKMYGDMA
In words: RIA, unlabeled rat CTGF competing with [125I]rhCTGF for immobilized antibody. As for the experimental part: (§1) The affinity of each antibody population identified by epitope mapping was measured using RIA, wherein whole rhCTGF was radio-iodinated and added to wells containing immobilized monoclonal antibody, as follows. Recombinant human CTGF was radiolabeled with ¹²⁵I using the chloramine-T method. (See, Greenwood et al. (1963) Biochem J 89:114-123.) Typically, at least 60% of the ¹²⁵I was incorporated and the specific activity of the labeled CTGF was at least 1×10⁵ cpm/ng, although labeled CTGF of lower specific activity can be used in the radioimmunoassay. Goat anti-human IgG, γFc-specific capture antibody (Jackson ImmunoResearch) in Ca²⁺- and Mg²⁺-free DPBS (Mediatech, Herrndon Va.) was added to the wells of a MAXISORP BREAKAPART microtiter plate (Nalge Nunc International, Rochester N.Y.) and allowed to bind overnight at 4° C. The wells were then blocked with 1% BSA in Ca²⁺- and Mg²⁺-free DPBS for at least 4 hours at 4° C. The blocking solution was removed and 100 μl of test antibody at 2-50 ng/ml in Ca²⁺- and Mg²⁺-free DPBS was added and allowed to bind overnight at 4° C. […] Wells were then washed four times with 0.1% Tween 20 in Ca²⁺- and Mg²⁺-free PBS (Mediatech), and the wells of the microtiter plate were separated and counted in a gamma counter. […]

The target of test [4] is T17, recombinant human connective tissue …. In words: Scatchard competitive binding; mAb 10 ng/ml.
Test [5] shares this target. In words: Scatchard competitive binding; mAb 25 ng/ml.
The target is the same in test [6]. The experiment in a line: Scatchard competitive binding; mAb 2.5 ng/ml.
Test [7] deals with T19, rat CTGF (rat, UniProt Q9R1E9 25-347).
T19 chain: T18 sequence (looked up)
In words: Scatchard competitive binding; mAb 5 ng/ml; labeled human CTGF vs unlabeled rat CTGF.

Test [8] has as its target T19, rat CTGF. The experiment in a line: Scatchard competitive binding; mAb 10 ng/ml; labeled human CTGF vs unlabeled rat CTGF.
Test [9] deals with T16, recombinant human connective tissue …. The experiment in a line: not stated (assays as described in Example 4).
Test [10] shares this target. In words: RIA as in Example 4.2. As to the method: as §1

B1: mAb1 (antibody, V domains shown)
VH: EGQLVQSGGGLVHPGGSLRLSCAGSGFTFSSYGMHWVRQAPGKGLEWVSGIGTGGGTYSTDSVKGRFTISRDNAKNSLYLQMNSLRAEDMAVYYCARGDYYGSGSFFDCWGQGTLVTVSS
VL: DIQMTQSPSSLSASVGDRVTITCRASQGISSWLAWYQQKPEKAPKSLIYAASSLQSGVPSRFSGSGSGTDFTLTISSLQPEDFATYYCQQYNSYPPTFGQGTKLEIKR
notes: also called exemplary antibody of the invention; antibody of hybridoma cell line 8C12-F10
Turning to B1, the binding result in the test with PC5444 is on record as “no binding”; with PC5445 it was “binds”; with PEP5 it was “binds”; in the test with P40340, “binds”; in the test with P40341 it was “no binding”; with P40342, “binds”. Besides, the binding result with 10MER, with 10MER2, with 9MER, with 9MER2, with 8MER and with 8MER2 was “no binding” each time. In addition, the binding result is listed as “no binding” in the test with 7MER, “no binding” with 6MER, “no binding” with 5MER and “binds” in the test with rat CTGF [3]. The Kd (as a rule, the free concentration of one partner at which half of the binding sites on the other are occupied at equilibrium, for simple one-to-one binding) in [1] is under 1000 pM; in [2], 239 pM; in test [4], 271 pM; in test [5] it was 384 pM; in test [6] it was 215 pM; with rat CTGF [7] it was 317 pM. The molecule further displayed a Kd in the test with rat CTGF [8] of 339 pM.

B2: CLN1 (antibody, V domains shown)
VH: B1 VH
VL: B1 VL
notes: also called recombinant antibody from COS7 cells co-transfected with plasmids 44a1 and 42b2
With B2, in [9], the Kd came to 800 pM.

B3: deglycosylated mAb1 (antibody, V domains shown)
VH: B1 VH
VL: B1 VL
modifications: N-linked oligosaccharides removed with peptide N-glycosidase F (PNGase F)
notes: also called deglycosylated antibody; PNGase F treated mAb1
As to B3, in test [10], the binding result was “binds”.
